Data as given in the supplement of paper PMC10724198.
± gives the standard deviation of the averaged measurements.

Test system: Saccharomyces cerevisiae
Assay: protein stability index of tFT-peptide fusion (C-terminal peptide) (PSI (0-1 scale)); higher = more stable (slower turnover)
Settings: genetic background: wild type; temperature: 30 C
Procedure: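 Multiplexed protein stability (MPS) profiling in S. cerevisiae. Random 12-aa peptides (tFT-X12 library) are fused to the C-terminus of a sfGFP-mCherry tandem fluorescent timer, after mCherry and a GGGS linker. Cells are FACS-sorted into 8 mCherry/sfGFP bins and deep-sequenced. The protein stability index (PSI) is the read-weighted bin average, scaled from 0 (unstable) to 1 (stable). Only peptides with >10 reads are reported; cells were grown at 30 °C in SC-His with glucose.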
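Note: PSI is a weighted mean of sequencing reads over stability bins, variants kept only with over 10 reads, mCherry proximal and sfGFP distal, peptide attached via GGGS linker.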

| Sequence | protein stability index |
| --- | --- |
| DGGVGRALEHGE | 0.652 ± 0.0083 |
| SAPRPPPLPPSP | 0.68 ± 0.068 |
| CLCLTCMLDFYL | 0.553 ± 0.0092 |
| PLEPDFLIGGNA | 0.807 ± 0.16 |
| NFPEATPSNYKV | 0.737 ± 0.015 |
| PPLPPPHLAFLH | 0.685 ± 0.035 |
| QVTLPHSSLLGW | 0.6749 ± 0.0028 |
| PSPPPSPPPRHF | 0.6924 ± 0.0046 |
| AFPSSLVFFFYT | 0.651 ± 0.033 |
| SLFSLLRSPSPF | 0.806 ± 0.18 |
| GGAGGTGVRCGT | 0.669 ± 0.017 |
| PPASSPPSRPPP | 0.62626 ± 0.00058 |
| VGGGGGGGWWHW | 0.805 ± 0.011 |
| WGGWGLRVSCGT | 0.681 ± 0.052 |
| PSILPPPSSCPP | 0.767 ± 0.041 |
| LSPSGATFWTPS | 0.676 ± 0.055 |
| CGVCRGSCGGYG | 0.583 ± 0.016 |
| AEIINRVKSRSK | 0.731 ± 0.074 |
| DLHFAVVFPISR | 0.733 ± 0.013 |
| GCGGAWGVWDGV | 0.729 ± 0.072 |
| LISSTLRDQKDE | 0.701 ± 0.047 |
| SDSIVTGCLKYP | 0.696 ± 0.014 |
| APPRPTRSHSAL | 0.657 ± 0.043 |
| GSSSSLDVFVVF | 0.699 ± 0.085 |
| RWGVGGSVSFWW | 0.7 ± 0.047 |

| Sequence | protein stability index |
| --- | --- |
| YPLPPLFLPLLL | 0.675 ± 0.046 |
| KKKKKTNKDKGQ | 0.66 ± 0.067 |
| VGSSGDEWGRYG | 0.7332 ± 0.0046 |
| VLGVDVIQVCPI | 0.682 ± 0.018 |
| KKLKKTTNQTKK | 0.616 ± 0.022 |
| RSPPHSNLAHCI | 0.684 ± 0.037 |
| PSSCLPAHLRPP | 0.605 ± 0.013 |
| LGHITLSERFGS | 0.705 ± 0.21 |
| GVGGRVRDALGM | 0.68 ± 0.066 |
| LPLDSPSRPLPP | 0.722 ± 0.011 |
| PPSPSSLPPPPL | 0.733 ± 0.0075 |
| RTHRKNRRYKKN | 0.639 ± 0.0072 |
| TSVVRIGVYRAS | 0.613 ± 0.037 |
| KKNYKNIEKKET | 0.658 ± 0.11 |
| DGCGFIGLSLLE | 0.731 ± 0.079 |
| AQSFRGVLLDVT | 0.706 ± 0.05 |
| LLICRLFLFTIW | 0.555 ± 0.12 |
| SLRPPLHSPSPS | 0.674 ± 0.016 |
| GLGMWSVRCAGW | 0.649 ± 0.0067 |
| VRGDRRHRGVWG | 0.709 ± 0.066 |
| VVRGPSGAGRAG | 0.665 ± 0.052 |
| KKKKKTKEINLK | 0.6698 ± 0.00079 |
| LCCTLPSRGVIV | 0.5993 ± 0.0059 |
| SGAGAMPPCSLP | 0.697 ± 0.029 |
| SFTYVFFSLSRR | 0.663 ± 0.019 |

| Sequence | protein stability index |
| --- | --- |
| PGGRPAAGALRV | 0.685 ± 0.065 |
| KIKNNIKKKKNR | 0.697 ± 0.024 |
| SFVFVCDGGSRG | 0.669 ± 0.017 |
| GGQGRYSAPPSR | 0.624 ± 0.02 |
| LVGFGGGGDGVV | 0.693 ± 0.032 |
| LPPPPPILHLPS | 0.6463 ± 0.005 |
| FSVSLACYPSMC | 0.698 ± 0.075 |
| SRCIIGILTRNF | 0.6836 ± 0.0035 |
| SIVPIIPDSVPP | 0.676 ± 0.048 |
| LSRGGVSCWWGH | 0.772 ± 0.033 |
| NGDPRVHTAVAR | 0.704 ± 0.054 |
| SCVWVLPLGFLR | 0.575 ± 0.058 |
| LVAYSPRFLHSP | 0.669 ± 0.038 |
| SWGLSVSSCFVW | 0.578 ± 0.0066 |
| PPPPPPPHSSLS | 0.709 ± 0.0078 |
| DQSYPTPPSRID | 0.721 ± 0.01 |
| VCYGELTISNLE | 0.654 ± 0.045 |
| RREKGEARGRGG | 0.618 ± 0.013 |
| RGVGGRALGVGR | 0.678 ± 0.038 |
| PHPPPTAPGPSP | 0.67 ± 0.00026 |
| RTSEAGKQHEWK | 0.695 ± 0.0074 |
| SHVPLPRAHSPP | 0.6702 ± 0.0034 |
| CMGRCGVCCERS | 0.711 ± 0.045 |
| PSSPLPLSVPPL | 0.655 ± 0.11 |
| PRCSVYPITGPY | 0.682 ± 0.046 |

| Sequence | protein stability index |
| --- | --- |
| GDYITIGGGLIW | 0.759 ± 0.017 |
| HDMTGARKTHIA | 0.676 ± 0.023 |
| LGYRCETNYVPD | 0.631 ± 0.023 |
| GVEVCEGDGPLK | 0.669 ± 0.015 |
| PFFPSQFFLFFS | 0.6477 ± 0.0048 |
| RVLCLCATSKSR | 0.672 ± 0.016 |
| KKKIKKQKKKQI | 0.70912 ± 0.00033 |
| AELAMGVSDMYS | 0.6782 ± 0.0013 |
| KIKKTITKNTKR | 0.726 ± 0.0082 |
| LSFSDPLSLPRH | 0.675 ± 0.079 |
| PPAPSSLPSPPS | 0.715 ± 0.017 |
| VGRVNRNERCQR | 0.587 ± 0.022 |
| HPTLPSLQVSPS | 0.689 ± 0.031 |
| DYHWPFIRTATE | 0.774 ± 0.027 |
| EPEPALTSAPPA | 0.715 ± 0.023 |
| EYGQTDENKMRM | 0.687 ± 0.096 |
| LLVNSFLIFPPH | 0.68474 ± 0.00059 |
| ASWEARGWLGWA | 0.794 ± 0.05 |
| MCCSVGGLFFFF | 0.649 ± 0.04 |
| VVCSTRRPSLGS | 0.681 ± 0.03 |
| KRGNEEYSRGNN | 0.692 ± 0.012 |
| PRPSRILPLPAP | 0.65 ± 0.0072 |
| PASQPPTPPPRS | 0.675 ± 0.11 |
